Source: patent US20180117114A1 (INDIANA UNIVERSITY RESEARCH AND TECHNOLOGY COPORATION, published 2018)

Biological target: CRMP-2 from wild-type mouse brain lysate (mouse, UniProt O08553 1-572)
Experiment: SPOTS array of neurofibromin 15-mers overlaid with mouse brain lysate, probed with three CRMP-2 antibodies

Row | Binder | binding result
1 | RVSHGQIKQIIRILS (15-mer on a SPOTS membrane) [SEQ ID NO: 1, neurofibromin C-terminus peptide RVSHGQIKQIIRILS] | binds
2 | KGYRHPSPAIVARTV (15-mer on a SPOTS membrane) [SEQ ID NO: 2, neurofibromin C-terminus peptide KGYRHPSPAIVARTV] | binds
3 | YLQSFGFNGLWRFAG (15-mer on a SPOTS membrane) [SEQ ID NO: 3, neurofibromin C-terminus peptide YLQSFGFNGLWRFAG] | binds
